Laboratory results as given in article PMC10175261.

Target: PriA (Escherichia coli, UniProt P17888 1-732)
Details: protein: recombinant; tags: N-terminal His; label: 5'-32P on 3L-98 (strand 2); fork 1:2 1:3; ssDNA lagging arm (strand 2)

B1: Fork 1 (structured_DNA)
DNA 1: GCAAGCCTTCTACAGGTCGACCGTCCATGGCGACTCGAGACCGCAATACGGATAAGGGCTGAGCACGCCGACGAACATTCACCACGCCAGACCACGTA
DNA 2: GACTATCTACGTCCGAGGCTCGCGCCGCAGACTCATTTAGCCCTTATCCGTATTGCGGTCTCGAGTCGCCATGGACGGTCGACCTGTAGAAGGCTTGC
DNA 3: TACGTGGTCTGGCGTGGTGAATGTTCGTCGGCGTGCTC
In the case of B1, the binding signal is reported as 91.9 ± 4.1 % fork shifted.
